Patent US20240400717A1 (NATIONAL CHENG KUNG UNIVERSITY, published 2024)
Where two headings read alike, the source gives them in different places. Each block holds one binder with its values, some of them ahead of it.

Columns and labels:
[1] = biological target: T1, human CHI3L1 extracellular domain fused with flag and His tag recombinant protein (human, UniProt P36222 22-383); assay: BLI (ForteBio Octet), mAb captured on AHC sensor, hCHI3L1/flag-His as analyte
T1 construct: extracellular domain; also called hCHI3L1/flag-His; hCHI3L1; not shown: flag and His tag

recombinant human CHI3L1 [2] = biological target: T2, recombinant human CHI3L1 (human, UniProt P36222 22-383); assay: ELISA: coated recombinant protein titrated 2.50 to 0.00 µg/ml, antibody at 1 µg/ml, OD450
T2 construct: also called rCHI3L1; human rCHI3L1

[3] = biological target: T3, human chitotriosidase-1 (CHIT1) (human, UniProt Q13231 22-466, limits assumed); assay: as above
CHI3L2 [4] = biological target: T4, CHI3L2 (human, UniProt Q15782 27-390, limits assumed); assay: as above
T4 construct: The sentence reads 'human chitotriosidase-1 (CHIT1) and CHI3L2'
T4 sequence (looked up): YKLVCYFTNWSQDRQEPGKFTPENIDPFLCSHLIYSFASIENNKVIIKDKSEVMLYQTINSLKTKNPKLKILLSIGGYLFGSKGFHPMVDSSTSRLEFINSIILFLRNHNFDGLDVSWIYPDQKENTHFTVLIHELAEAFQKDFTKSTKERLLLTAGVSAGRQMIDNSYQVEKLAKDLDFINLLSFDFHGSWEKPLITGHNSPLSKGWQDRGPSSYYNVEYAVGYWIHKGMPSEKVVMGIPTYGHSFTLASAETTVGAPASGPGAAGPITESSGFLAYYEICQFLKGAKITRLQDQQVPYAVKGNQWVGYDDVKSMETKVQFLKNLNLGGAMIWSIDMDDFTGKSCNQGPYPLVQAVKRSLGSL

mouse rCHI3L1 [5] = biological target: T5, mouse rCHI3L1 (mouse, UniProt Q61362 30-389, limits assumed); assay: phage ELISA (4th round single clone screening): coated protein, rescued phage supernatant, anti-M13-HRP, OD450
T5 construct: also called mouse CHI3L1; murine CHI3L1

recombinant human CHI3L1 [6] = biological target: T2, recombinant human CHI3L1; assay: ELISA: coated human rCHI3L1 titrated 2.5 to 0 µg/ml, antibody concentration not given, OD450
mouse rCHI3L1 [7] = biological target: T5, mouse rCHI3L1; assay: phage ELISA (3rd round single clone screening): coated protein, rescued phage supernatant, anti-M13-HRP, OD450
recombinant human CHI3L1 [8] = biological target: T2, recombinant human CHI3L1; assay: ELISA: coated recombinant protein titrated 2.50 to 0.00 µg/ml, antibody at 1 µg/ml, OD450; remark: listed apart in the source
[9] = biological target: T3, human chitotriosidase-1 (CHIT1); assay: as above; remark: listed apart in the source
CHI3L2 [10] = biological target: T4, CHI3L2; assay: as above; remark: listed apart in the source
mouse rCHI3L1 [11] = biological target: T5, mouse rCHI3L1; assay: ELISA: coated mouse rCHI3L1 titrated 2.5 to 0 µg/ml, antibody concentration not given, OD450
recombinant human CHI3L1 [12] = biological target: T2, recombinant human CHI3L1; assay: ELISA: coated recombinant protein titrated 2.50 to 0.00 µg/ml, antibody at 1 µg/ml, OD450; remark: listed apart in the source
[13] = biological target: T3, human chitotriosidase-1 (CHIT1); assay: as above; remark: listed apart in the source
CHI3L2 [14] = biological target: T4, CHI3L2; assay: as above; remark: listed apart in the source
recombinant human CHI3L1 [15] = biological target: T2, recombinant human CHI3L1; assay: phage ELISA (3rd round single clone screening): coated protein, rescued phage supernatant, anti-M13-HRP, OD450
mouse rCHI3L1 [16] = biological target: T5, mouse rCHI3L1; assay: as above; remark: listed apart in the source
mouse rCHI3L1 [17] = biological target: T5, mouse rCHI3L1; assay: phage ELISA (4th round single clone screening): coated protein, rescued phage supernatant, anti-M13-HRP, OD450; remark: listed apart in the source
recombinant human CHI3L1 [18] = biological target: T2, recombinant human CHI3L1; assay: ELISA: coated recombinant protein titrated 2.50 to 0.00 µg/ml, antibody at 1 µg/ml, OD450; remark: listed apart in the source
[19] = biological target: T3, human chitotriosidase-1 (CHIT1); assay: as above; remark: listed apart in the source
CHI3L2 [20] = biological target: T4, CHI3L2; assay: as above; remark: listed apart in the source

T3 sequence (Q13231 22-466 limits assumed): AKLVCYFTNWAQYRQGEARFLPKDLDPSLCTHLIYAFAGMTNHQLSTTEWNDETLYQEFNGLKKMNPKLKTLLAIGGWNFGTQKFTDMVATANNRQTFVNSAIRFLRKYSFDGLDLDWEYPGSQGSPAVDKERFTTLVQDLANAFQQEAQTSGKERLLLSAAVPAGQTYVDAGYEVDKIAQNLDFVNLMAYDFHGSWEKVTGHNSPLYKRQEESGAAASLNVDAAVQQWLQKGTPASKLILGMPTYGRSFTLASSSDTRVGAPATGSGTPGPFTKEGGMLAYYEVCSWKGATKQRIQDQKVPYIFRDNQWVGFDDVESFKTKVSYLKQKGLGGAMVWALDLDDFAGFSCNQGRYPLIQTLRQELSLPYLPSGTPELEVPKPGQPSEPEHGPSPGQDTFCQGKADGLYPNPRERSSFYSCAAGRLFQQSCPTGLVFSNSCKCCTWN
T1 sequence (P36222 22-383 limits assumed): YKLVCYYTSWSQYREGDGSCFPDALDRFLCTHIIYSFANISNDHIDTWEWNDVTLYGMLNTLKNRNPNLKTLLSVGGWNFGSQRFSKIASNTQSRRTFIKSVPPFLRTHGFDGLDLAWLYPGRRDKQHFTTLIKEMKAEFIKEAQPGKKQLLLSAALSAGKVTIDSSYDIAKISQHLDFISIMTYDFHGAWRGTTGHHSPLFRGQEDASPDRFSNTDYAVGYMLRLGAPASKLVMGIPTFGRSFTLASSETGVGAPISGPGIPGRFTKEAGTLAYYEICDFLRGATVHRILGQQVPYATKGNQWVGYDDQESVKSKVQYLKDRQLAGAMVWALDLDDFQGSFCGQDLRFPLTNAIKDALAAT
T2 sequence (P36222 22-383 limits assumed): as above
T5 sequence (Q61362 30-389 limits assumed): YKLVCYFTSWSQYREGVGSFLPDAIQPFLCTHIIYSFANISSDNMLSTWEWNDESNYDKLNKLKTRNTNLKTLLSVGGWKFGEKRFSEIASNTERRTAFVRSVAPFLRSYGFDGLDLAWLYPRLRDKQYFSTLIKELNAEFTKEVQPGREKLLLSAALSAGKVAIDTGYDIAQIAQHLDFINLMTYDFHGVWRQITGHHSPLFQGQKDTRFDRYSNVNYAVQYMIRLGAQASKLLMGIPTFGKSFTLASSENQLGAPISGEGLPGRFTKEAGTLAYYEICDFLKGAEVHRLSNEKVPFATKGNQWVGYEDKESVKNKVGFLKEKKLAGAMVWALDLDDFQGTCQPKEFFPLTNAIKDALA

B2: anti-CHI3L1 clone 293R3-2 (antibody, human IgG1, V domains shown)
VH: QVQLQESGPGLVEPSGTLSLTCAVSGGSISSSNWWSWVRQHPGKGLEWIGEIYHSGSTNYNPSLRSRVTISVDKSKNQFSLELSSVTAADTAVYYCAGDQRMEDDAFDIWGQGTMVTVSS
VL: QSALTQPASVSGSPGQSITISCTGTSSDVGGYNYVSWYQQHPGKAPKLMIYDVSNRPSGVSNRFSGSKSGNTASLTISGLQAEDEADYYCSSYTSSSTLYVFGTGTKVTVLG
notes: also called #hu 293R3-2; CHI3L1 293R3-2
Kd [1]: 2.79 nM
koff [1]: 0.00302 s⁻¹
kon [1]: 1.08e+06 M⁻¹ s⁻¹
binding result (mouse rCHI3L1 [7]): no binding
EC50 (read off the curve) (recombinant human CHI3L1 [8]): ~0.8 µg/mL
binding result [9]: no binding
binding result (CHI3L2 [10]): no binding

B3: anti-CHI3L1 clone 293R3-4 (antibody, human IgG1, V domains shown)
VH: EVQLVQSGAEVKKPGATVKISCKVSGYSFTDYYIHWVQQAPGKGLEWMGFVDPENGETIYAEKFQGRVTITADTSTDTAYMELSSLRSDDTAVYYCATDRDYDDSSGNAFDIWGQGTMVTVSS
VL: SYELTQPPSVSVSTGQTATITCSGDILGDEYAFWYQQKAGQSPVLVIYLDTRRPSGIPERFSGSNSGDTATLTISETQPVDEAVYFCQGWDSSTALYVFGTGTKVTVLG
notes: also called #hu 293R3-4; CHI3L1 293R3-4
Kd [1]: 3.94 nM
koff [1]: 0.00722 s⁻¹
kon [1]: 1.83e+06 M⁻¹ s⁻¹
binding result (mouse rCHI3L1 [11]): no binding (tested: 2.5 µg/ml coated protein)
EC50 (read off the curve) (recombinant human CHI3L1 [12]): ~0.8 µg/mL
binding result [13]: no binding
binding result (CHI3L2 [14]): no binding

The remaining lines, values ahead:

Kd [1]: 1.13 nM
koff [1]: 0.000353 s⁻¹
kon [1]: 313000 M⁻¹ s⁻¹
EC50 (read off the curve) (recombinant human CHI3L1 [2]): ~0.5 µg/mL
binding result [3]: no binding
binding result (CHI3L2 [4]): no binding
binding result (mouse rCHI3L1 [5]): binds
EC50 (read off the curve) (recombinant human CHI3L1 [6]): ~0.6 µg/mL
B1: anti-CHI3L1 clone R4-4 (antibody, V domains shown)
VH: EVQLLESGGGLLQPGGSLRLSCAASGLTFRNYAMTWVRQAPGKGLEWVSTISGNGDETFYADSVKGHFTISRDNSKDTVYLQMNSLRAEDTAVYYCAKGGHYSFFDSWGQGSPVTVSS
VL: NFMLTQPHSVSESPGKTVTISCTRSSGSIASNYVQWYQQRPGSSPTTVIYEDNQRPSGVPDRFSGSIDSSSNSASLTISGLKTEDEADYYCQSYDSSNYVFGTGTKVTVLG
notes: also called #hu R4-4; mAb clone R4-4

binding result (recombinant human CHI3L1 [15]): binds
binding result (mouse rCHI3L1 [16]): no binding
B4: anti-CHI3L1 clone 293R3-5 (antibody, human IgG1, V domains shown)
VH: EVQLVQSGAGVKKPGATVKISCKVSGYTFTDYYMHWVQQAPGKGLEWMGLVDPEDGETIYAEKFQGRVTITADTSTDTAYMELSSLRSEDTAVYYCATASPREEMPYYFDYWGQGTLVTVSS
VL: SYELTQPPSVSVSPGQTASITCSGDILADQYASWYQQKPGQSPVLVIYHDTKRPSGVPERFSGSTSGNTATLTISGTQAMDEAAYYCQAWDINTAWVFGGGTQLTVLG
notes: also called #hu 293R3-5

binding result (mouse rCHI3L1 [17]): no binding
Kd [1]: 4.22 nM
koff [1]: 0.0065 s⁻¹
kon [1]: 1.54e+06 M⁻¹ s⁻¹
EC50 (read off the curve) (recombinant human CHI3L1 [18]): ~0.8 µg/mL
binding result [19]: no binding
binding result (CHI3L2 [20]): no binding
B5: anti-CHI3L1 clone R4-54 (antibody, human IgG1, V domains shown)
VH: QVQLVESGGGVVQPGRSLRLSCAASGFTFSSYGMHWVRQAPGKGLEWVAVISYDGSDKDYADSVKGRFTISRDNSKNTLFLQMNSLRAEDTAVYYCARDDYDSTYYFDNWGQGTTVTVSS
VL: SYELTQPPSVSVSPGQTASITCSGDILADQYASWYQQKPGQSPVLVIYHDTKRPSGVPERFSGSTSGNTATLTISGTQAMDEAAYYCQAWDINTAWVFGGGTQLTVLG
notes: also called #hu R4-54; mAb clone R4-54
